Test results from the supplement of paper PMC10567573.

B1: SLC22A15 (parent)
chain: IAQYALLGYFIRSWRTLAILVNLQ
B2: FAM189A2 (parent)
chain: VAAALRYLQIFATRRSCIDESQIS

Variants of: B1
Experiment: protein stability index of a GFP-peptide fusion (GPS, HEK-293T) (PSI 1-6); higher = more stable
Conditions: c terminus: a fixed tail appended
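Further: lentivirally expressed fusions sorted by FACS into six bins by GFP to DsRed ratio, PSI derived from sequencing read proportions per bin multiplied by bin number.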

Protein stability index, by site and new letter:
N22: V 2.23 | I 3.28 | Q 3.36 | F 2.84 | Y 1.37 | G 1.88 | T 1.9 | A 2.95 | D 3.52 | R 1.22 | S 2.85 | H 2.27 | K 2.52 | W 3.89 | M 2.6 | E 2.57
I19: R 2.16 | H 3.34 | N 3 | V 2.96 | T 2.44 | K 2.96 | Q 3.02 | L 2.4 | F 2.53 | W 2.01 | C 3.7 | A 3.93 | S 1.99 | E 4 | D 3.35 | P 3.94 | Y 3.28 | M 2.84
A18: D 2.57 | W 2.12 | S 3.54 | C 2.44 | R 2.01 | L 3.84 | K 1.91 | G 3.28 | M 2.17 | F 3.68 | I 3.41 | P 3 | Q 2.15 | N 3.65 | H 2.25 | Y 3.11
Q24: R 3.17 | S 2.34 | Y 2.82 | H 2.79 | T 3.58 | V 2.92 | G 2.66 | W 2.37 | K 3.21 | L 3.01 | A 4.01 | E 3.5 | N 2.07 | P 3.8 | C 2.35 | F 2.7 | D 2.49 | I 3.51 | M 2.6
L17: T 4.02 | Y 2.18 | S 3.35 | V 4.09 | W 2.85
V21: K 2.38 | T 3.6 | E 2.14 | N 2.8 | D 2.85 | Q 2.24 | R 2.7 | I 4.67 | C 2.52 | F 2.86 | Y 2.37 | P 3.37 | S 2.08 | L 3.19 | A 2.78 | H 2.69 | G 1.76
L20: G 3.27 | M 3.89 | N 2 | H 3.94 | P 3.33 | A 3.21 | Y 2.76 | S 3.12 | R 3.09 | C 3.7 | I 5.13 | Q 3.19 | E 2.77 | D 2.57 | W 2.32 | T 2.91 | V 2.1 | K 2.38
L23: K 3.75 | G 3.35 | P 2.52 | I 2.5 | C 3.16 | A 2.65 | Q 3.66 | T 3.08 | M 4.11 | F 2.79 | E 2.25 | W 2.35 | D 3.83 | S 3.76 | V 4.42 | H 2.81 | R 2.6 | Y 3.34 | N 3.06

Variants of: B2
Experiment: as above
Conditions: c terminus: a fixed tail appended

Protein stability index: each site, then its substitutions
A3: C 2.42 | W 3.75
I18: K 2.7 | P 2.1 | V 1.89 | T 1.75 | W 4.01
A12: G 1.65 | L 2.85
S21: C 1.98
Q9: R 2.24
T13: M 3.45 | G 1.72 | P 2.29
R14: C 3.16 | L 2.5 | H 3.33
R15: N 1.59 | C 2.03 | I 1.77 | H 1.94 | P 1.52
S24: C 3.79 | I 2.9
L5: V 4.11 | K 1.48 | H 3.09
I10: T 1.59 | W 2.48
I23: H 1.69
R6: S 1.89 | T 2.41
A2: F 1.74 | N 1.27
C17: R 1.23 | M 2.58
A4: N 2.83 | Q 2.73 | E 1.25
